Results on 1 substance are retold here after patent US20110150870A1.

pKd: −log10 of the molar value.

Test [1] addresses human Fc-NKG2D (human) (UniProt P26718). The experiment in a line: SPR (BIAcore 2000), human Fc-NKG2D immobilized on chip; bivalent IgG. A general note: SPR reads the build-up and loss of mass on a sensor chip optically.
The target in test [2] is human NKG2D, cell surface (human) (UniProt P26718). Description: cell-based or functional assay.
Test [3] addresses human Fc-NKG2D (human) (UniProt P26718). Description: SPR (BIAcore 2000), human Fc-NKG2D immobilized on chip; bivalent binding (virtual affinity, avidity).

human Fc-NKG2D (human), sequence (P26718 78-216 limits assumed): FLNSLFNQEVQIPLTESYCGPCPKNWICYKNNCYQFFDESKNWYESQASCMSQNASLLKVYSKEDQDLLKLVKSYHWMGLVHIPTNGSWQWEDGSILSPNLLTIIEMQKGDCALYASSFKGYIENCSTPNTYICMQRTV
human NKG2D, cell surface (human), sequence (P26718 whole entry): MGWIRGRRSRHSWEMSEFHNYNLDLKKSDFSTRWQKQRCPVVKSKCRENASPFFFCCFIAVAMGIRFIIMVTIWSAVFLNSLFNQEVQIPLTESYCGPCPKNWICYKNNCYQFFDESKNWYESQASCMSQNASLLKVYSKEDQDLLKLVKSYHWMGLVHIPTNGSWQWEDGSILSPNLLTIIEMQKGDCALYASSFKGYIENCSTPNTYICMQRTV

“mouse anti-human NKG2D mAb 149810 (antibody)”: in the test with human Fc-NKG2D (human) [1], the koff (usually the rate constant with which the complex falls apart) stood at 5.1e-05 s⁻¹ and the kon (as a rule, the rate constant with which the complex forms) stood at 140000 M⁻¹ s⁻¹. In addition, in test [2], the percentage of degranulated NK cells (CD56+ CD107a/CD107b+) among total NK cells (CD56+), immobilized antibody, Donor 1 turned out to be 13.6%; the percentage of degranulated NK cells (CD56+ CD107a/CD107b+) among total NK cells (CD56+), immobilized antibody, Donor 2 is 16.3%; the percentage of degranulated NK cells (CD56+ CD107a/CD107b+) among total NK cells (CD56+), immobilized antibody, Donor 3 was 24.3%; the percentage of degranulated NK cells (CD56+ CD107a/CD107b+) among total NK cells (CD56+), immobilized antibody, Donor 4 is 8.4%. For the same substance, the negative logarithm of the Kd (pKd) – broadly, the Kd on a negative log10 scale, so that one unit is a factor of ten – in the test with human Fc-NKG2D (human) [3] was 9.44.
